Assay results published in publication PMC10107836 (Chembiochem, 2022).
Several values for one entry are separate records, joined by “and”; a condition that tells them apart may be missing. Equal values may be shown once.

Target: extraviral domain of SARS-CoV-2 spike protein (aa 1-1213) (SARS-CoV-2) (UniProt P0DTC2)
Assay: SPR

pineapple-derived jacalin-related lectin AcmJRL (natural protein)
Kd: 3.3 µM and 11.1 µM | koff: 0.0034 s⁻¹ | kon: 1060 M⁻¹ s⁻¹
